Experimental data reported in patent US20210309984.

System: MUC5AC within type II porcine stomach mucin extract

Substance | immunoblot of MUC5AC degradation, in the presence of EDTA | immunoblot of MUC5AC degradation in type II mucin extract
ChiA C-domain (ChiA-CTD: residues 419-762), wild-type | no activity was detected | 
SsIE (residues 90-1520), E. coli strain W | no activity was detected | MUC5AC was processed into a different ˜60 kDa species
